Test results reported in PMC9482650, “Quantitative fragmentomics allow affinity mapping of interactomes” (Nature Communications, 2022).

T1: SIPA1L2, Q9P2F8
T1 sequence (Q9P2F8 945-1036, limits assumed, looked up): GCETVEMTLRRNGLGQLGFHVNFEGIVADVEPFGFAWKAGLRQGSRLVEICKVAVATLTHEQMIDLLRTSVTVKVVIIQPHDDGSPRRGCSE

T2: DLG3_2, Q92796
T2 sequence (Q92796 221-321, limits assumed, looked up): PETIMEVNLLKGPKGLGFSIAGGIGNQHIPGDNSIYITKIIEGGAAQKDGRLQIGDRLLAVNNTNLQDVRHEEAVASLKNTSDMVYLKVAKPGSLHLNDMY

T3: FRMPD1, Q5SYB0
T3 sequence (Q5SYB0 52-145, limits assumed, looked up): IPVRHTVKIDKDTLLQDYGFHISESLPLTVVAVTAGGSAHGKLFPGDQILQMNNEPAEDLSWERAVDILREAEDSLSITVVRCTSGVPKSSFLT

T4: SNTG2, Q9NY99
T4 sequence (Q9NY99 68-166, limits assumed, looked up): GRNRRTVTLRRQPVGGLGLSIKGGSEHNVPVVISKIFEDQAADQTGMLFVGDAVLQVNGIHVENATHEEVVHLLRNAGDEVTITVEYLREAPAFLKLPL

T5: APBA3_1, O96018
T5 sequence (O96018 389-490, limits assumed, looked up): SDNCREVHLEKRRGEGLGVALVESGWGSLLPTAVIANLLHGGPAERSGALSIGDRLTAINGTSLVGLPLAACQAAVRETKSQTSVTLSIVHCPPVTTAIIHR

T6: PDZD7_3, Q9H5P4
T6 sequence (Q9H5P4 857-944, limits assumed, looked up): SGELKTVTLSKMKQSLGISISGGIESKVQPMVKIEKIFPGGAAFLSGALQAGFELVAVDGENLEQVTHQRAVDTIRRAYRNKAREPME

T7: GRIP1_4, Q9Y3R0
T7 sequence (Q9Y3R0 467-571, limits assumed, looked up): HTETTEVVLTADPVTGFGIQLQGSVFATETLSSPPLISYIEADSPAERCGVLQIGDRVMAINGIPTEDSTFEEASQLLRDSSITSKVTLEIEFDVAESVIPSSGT

T8: HTRA3, P83110
T8 sequence (P83110 354-453, limits assumed, looked up): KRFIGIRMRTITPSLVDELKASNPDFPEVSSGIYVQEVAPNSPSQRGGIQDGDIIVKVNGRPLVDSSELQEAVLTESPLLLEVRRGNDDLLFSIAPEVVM

T9: PDZD2_2, O15018
T9 sequence (O15018 329-429, limits assumed, looked up): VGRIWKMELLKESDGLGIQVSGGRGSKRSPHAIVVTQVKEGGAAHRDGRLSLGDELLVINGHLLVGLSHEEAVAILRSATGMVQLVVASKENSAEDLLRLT

T10: GRIP1_5, Q9Y3R0
T10 sequence (Q9Y3R0 568-668, limits assumed, looked up): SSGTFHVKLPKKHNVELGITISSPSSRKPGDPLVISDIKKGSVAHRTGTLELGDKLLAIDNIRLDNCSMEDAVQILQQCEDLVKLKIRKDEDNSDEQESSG

T11: TJP3_3, O95049
T11 sequence (O95049 375-456, limits assumed, looked up): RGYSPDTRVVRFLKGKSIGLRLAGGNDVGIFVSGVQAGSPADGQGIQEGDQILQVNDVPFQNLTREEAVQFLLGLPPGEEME


Tests used:
Experiment in all cases: holdup assay
Parameters in all cases: key: below the threshold = too weak to quantify, mostly under pKd 3.1 to 4
Details in all cases: plain residues with an end cap or a label only (N-terminal biotin on a linker: ttds)
[1] = biological target: T1, SIPA1L2, Q9P2F8
[2] = biological target: FRMPD4, Q14CM0
[3] = biological target: IL16_3, Q14005
[4] = biological target: T2, DLG3_2, Q92796
[5] = biological target: MAGI2_2, Q86UL8
[6] = biological target: T3, FRMPD1, Q5SYB0
[7] = biological target: HTRA1, Q92743
[8] = biological target: Inadl_3, Q8NI35
[9] = biological target: T4, SNTG2, Q9NY99
[10] = biological target: T5, APBA3_1, O96018
[11] = biological target: T6, PDZD7_3, Q9H5P4
[12] = biological target: NHERF4_4, Q86UT5
[13] = biological target: LNX1_2, Q8TBB1
[14] = biological target: GORASP1, Q9BQQ3
[15] = biological target: T7, GRIP1_4, Q9Y3R0
[16] = biological target: T8, HTRA3, P83110
[17] = biological target: T9, PDZD2_2, O15018
[18] = biological target: GRIP2_7, Q9C0E4
[19] = biological target: LIMK2, P53671
[20] = biological target: HTRA2, O43464
[21] = biological target: Inadl_5, Q8NI35
[22] = biological target: FRMPD2_3, Q68DX3
[23] = biological target: T10, GRIP1_5, Q9Y3R0
[24] = biological target: MAGI2_6, Q86UL8
[25] = biological target: T11, TJP3_3, O95049
[26] = biological target: TJP1_3, Q07157
TJP1_3, Q07157, sequence (Q07157 416-512): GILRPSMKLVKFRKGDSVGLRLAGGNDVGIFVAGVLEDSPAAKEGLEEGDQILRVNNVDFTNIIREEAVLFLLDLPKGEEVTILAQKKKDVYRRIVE

LIMK2, P53671, sequence (P53671 143-248): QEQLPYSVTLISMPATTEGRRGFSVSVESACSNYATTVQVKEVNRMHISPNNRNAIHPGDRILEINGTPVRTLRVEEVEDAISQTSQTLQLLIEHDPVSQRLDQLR
FRMPD2_3, Q68DX3, sequence (Q68DX3 1073-1166): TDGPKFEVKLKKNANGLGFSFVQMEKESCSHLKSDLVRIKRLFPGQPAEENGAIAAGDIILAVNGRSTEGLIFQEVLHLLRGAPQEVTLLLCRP
HTRA1, Q92743, sequence (Q92743 360-477): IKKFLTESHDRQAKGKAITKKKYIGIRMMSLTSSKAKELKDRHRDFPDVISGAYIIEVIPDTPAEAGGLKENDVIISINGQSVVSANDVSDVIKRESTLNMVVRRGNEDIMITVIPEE
MAGI2_6, Q86UL8, sequence (Q86UL8 1141-1229): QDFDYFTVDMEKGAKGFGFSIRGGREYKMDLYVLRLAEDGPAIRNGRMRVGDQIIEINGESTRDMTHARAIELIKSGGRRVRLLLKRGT
LNX1_2, Q8TBB1, sequence (Q8TBB1 371-470): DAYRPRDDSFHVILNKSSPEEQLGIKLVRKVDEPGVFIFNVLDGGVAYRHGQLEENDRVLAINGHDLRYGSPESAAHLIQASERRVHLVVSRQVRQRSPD
NHERF4_4, Q86UT5, sequence (Q86UT5 464-550): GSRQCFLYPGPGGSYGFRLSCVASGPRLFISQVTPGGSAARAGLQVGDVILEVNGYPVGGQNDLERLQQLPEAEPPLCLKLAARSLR
GRIP2_7, Q9C0E4, sequence (Q9C0E4 934-1023): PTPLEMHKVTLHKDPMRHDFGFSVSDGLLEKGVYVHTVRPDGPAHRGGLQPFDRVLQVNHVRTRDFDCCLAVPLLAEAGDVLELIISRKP
FRMPD4, Q14CM0, sequence (Q14CM0 67-160): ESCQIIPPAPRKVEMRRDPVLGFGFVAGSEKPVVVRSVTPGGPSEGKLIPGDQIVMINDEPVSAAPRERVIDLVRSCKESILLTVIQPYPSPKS
IL16_3, Q14005, sequence (Q14005 1107-1207): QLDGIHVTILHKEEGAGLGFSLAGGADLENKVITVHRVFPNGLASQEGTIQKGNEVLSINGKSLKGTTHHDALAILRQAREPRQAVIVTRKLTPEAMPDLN
MAGI2_2, Q86UL8, sequence (Q86UL8 410-522): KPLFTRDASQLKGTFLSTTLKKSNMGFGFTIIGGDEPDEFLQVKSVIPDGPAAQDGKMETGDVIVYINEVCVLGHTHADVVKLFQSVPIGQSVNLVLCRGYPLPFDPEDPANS
HTRA2, O43464, sequence (O43464 355-458): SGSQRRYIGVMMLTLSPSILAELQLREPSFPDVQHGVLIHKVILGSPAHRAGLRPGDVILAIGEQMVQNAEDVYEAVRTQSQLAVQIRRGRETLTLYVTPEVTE
GORASP1, Q9BQQ3, sequence (Q9BQQ3 1-208): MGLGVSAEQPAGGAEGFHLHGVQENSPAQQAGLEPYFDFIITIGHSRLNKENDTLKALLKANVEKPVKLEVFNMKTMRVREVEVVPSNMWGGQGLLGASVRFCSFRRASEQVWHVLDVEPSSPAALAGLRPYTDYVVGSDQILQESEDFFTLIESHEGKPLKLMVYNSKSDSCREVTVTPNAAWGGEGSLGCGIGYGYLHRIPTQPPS
Inadl_5, Q8NI35, sequence (Q8NI35 673-780): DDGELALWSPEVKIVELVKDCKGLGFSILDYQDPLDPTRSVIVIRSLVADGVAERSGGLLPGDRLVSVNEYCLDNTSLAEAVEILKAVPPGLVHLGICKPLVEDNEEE
Inadl_3, Q8NI35, sequence (Q8NI35 359-469): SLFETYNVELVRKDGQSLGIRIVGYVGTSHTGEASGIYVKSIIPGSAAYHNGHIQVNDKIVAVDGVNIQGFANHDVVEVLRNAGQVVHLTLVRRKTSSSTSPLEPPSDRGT

| Binder | pKd [1] | pKd [2] | pKd [3] | pKd [4] | pKd [5] | pKd [6] | pKd [7] | pKd [9] | pKd [10] | pKd [11] | pKd [12] | pKd [13] | pKd [14] | pKd [15] | pKd [16] | pKd [17] | pKd [18] | pKd [19] | pKd [20] | pKd [22] | further results |
| --- | --- | --- | --- | --- | --- | --- | --- | --- | --- | --- | --- | --- | --- | --- | --- | --- | --- | --- | --- | --- | --- |
| PRVKPQRSKV [PPP1R13L, Q8WUF5] | below the threshold | below the threshold | below the threshold | 3.73 | 3.79 | below the threshold | below the threshold | below the threshold | below the threshold | 3.67 | below the threshold | below the threshold | below the threshold | below the threshold | below the threshold | 4.01 | below the threshold | below the threshold | below the threshold | below the threshold | pKd [8]: below the threshold; pKd [21]: below the threshold; pKd [23]: 3.65; pKd [24]: below the threshold; pKd [25]: below the threshold; pKd [26]: below the threshold |
| EMDRRPATVV [PLCB4, Q15147] | below the threshold | 3.55 | below the threshold | 4.24 | 4.31 | 3.61 | 4.23 | 3.71 | below the threshold | 5.03 | below the threshold | 3.67 | 4.06 | below the threshold | below the threshold | 3.87 | 3.63 | 3.52 | below the threshold | 4.01 | pKd [23]: below the threshold; pKd [24]: below the threshold; pKd [25]: below the threshold; pKd [26]: below the threshold |
| SKPTRRETEV [HPV35-E6, P27228] | below the threshold | below the threshold | below the threshold | 5.49 | 4.93 | below the threshold | below the threshold | 3.95 | below the threshold | 4.3 | below the threshold | below the threshold | below the threshold | below the threshold | below the threshold | 3.78 | below the threshold | below the threshold | below the threshold | below the threshold | pKd [8]: below the threshold; pKd [21]: below the threshold; pKd [23]: below the threshold; pKd [24]: 3.49; pKd [25]: below the threshold; pKd [26]: below the threshold |
